In US8956838B2, “Carboxyl esterase polypeptides” (B.R.A.I.N., priority 2006, dated 2015):

B1: EstA3: recombinant enzyme having carboxyl esterase activity, amino acid sequence SEQ ID NO: 2, family VIII of bacterial lipolytic enzymes (protein)
chain: MSAEELGFLPDRLARISDHIQTNYLDNGKLPFASLLIGRGDDIALQWSSGVADDAIFRIASMTKPVTSVAFMQLVEQGKVALTDPVAKYIPEFAKLGVFVAGGGNIPFVSRPPTMPMRIVDVLRHTTGFTYSFQERSNIDAAYRKTDVESWTRSTSQSFIDTLAEIPLEFDPGTQWNYSVSTDVLGILIERISGQSLPDYFRDHIFAPLGMVDTCFTVPADKAARIPQCFAFDPATKMKLFDEAGASSLWTKGWSFNSGGGGLASSVADYHRFCRMLLNGGALDGIQIISPKTLELMTANHLPGGQDLTQMSKSLFSEAEMAGIGFGLGFATTIDSVATLTPCSTGDFYWGGMYSTAFFVDPVEDIIMIFMTQLMPSSTYPVRREIKTMIYSALAA
modifications: metagenomic sequence
B2: EstCE1: recombinant enzyme having carboxyl esterase activity, amino acid sequence SEQ ID NO: 4, family VIII of bacterial lipolytic enzymes (protein)
chain: MSIADQSLAKRVQGVSQQAIDEGRIVGSVVLIARHGRVIYANASGYADREQKKPMVRETQFRLSSVSKPYITLAAMRMIEQQKLGLDDTVSRWLPWFTPALADGVRPPIKIRHLLSHTAGLDYRLSQPAEGPYHRLGIKDGMELSSLTLEQNLRLLAQADLLAEPGSEFRYSLAIDVLGAVLEQVAGEPLPQVFNHWVAQPLGLRNTGFYTTDVDNLATAYHDTAAEPEPIRDGMLLTLPEGFGFEIELAPSRALDAQAYPSGGAGMVGDADDVLQLVETLRTGKEGILQPATAALMRQAHVGSHAETQGPGWGFGFGGAVLEDAQLAATPQHNGTLQWGGVYGHSWFYDPQAAISVVALTNTAFEGMSGRYPLQIRDAVYGTNEPTR
modifications: metagenomic sequence

What was measured:
[1] = Titration assay with vinyl acid esters; assay type: biochemical; settings: 10 mM, 37° C., pH 7.0
Protocol: Enzyme activities on the substrates triacetin, tripropionin, tributyrin, tricaprylene, trilaurin and vinyl-substrates (vinyl-acetate, ˜propionate, ˜butyrate, ˜caproate, ˜caprylate and ˜laurate) were determined using a standard titration assay with minor modifications. Tests were performed with a Methrom 718 STAT potentiometric titrator (Herisau, Switzerland) and by using 10 mM NaOH for titration. The substrates at 10 mM concentration were emulsified in 20 ml reaction buffer containing 2 mM Tris/HCl pH 7.0. After addition of 7.5 μg of the purified enzyme the NaOH consumption was recorded at a reaction temperature of 37° C. One unit was defined as the amount of enzyme that released […] of fatty acid per min.

[2] = Enzyme activity fingerprinting with substrate cocktails; assay type: biochemical; settings: substrate 7-(3-octylcarboxy-(3-hydroxy-3-methyl-butyloxy))-coumarine; fingerprint analysis, 15 μM, 30 min
Protocol: The enzyme activity fingerprinting used 10 substrates and was carried out as described previously. The assay conditions were 75% PBS buffer at pH 7.4, 25% DMSO and 0.0025% SDS. Each substrate was present in the cocktail at 15 μM, the total concentration of the substrate cocktail was 150 μM. EstA3 was added at a concentration of 0.75 mg/L and EstCE1 at 0.2075 mg/L. The reaction time was 30 min. The chemical background was measured by recording the products observed under the same assay conditions after a 5 day incubation in the absence of the enzyme. The blank value was taken from the reaction after 30 min incubation in the absence of the enzyme.

[3] = substrate vinyl laurinate (C12)
[4] = substrate vinyl propionate (C3)

Molecule | specific activity ([1]; substrate vinyl acetate (C2)) | specific activity ([1]; substrate vinyl butyrate (C4)) | specific activity ([1]; substrate vinyl caproate (C6)) | specific activity ([1]; substrate vinyl caprylate (C8)) | specific activity [1, 3] | specific activity [1, 4] | conversion of secondary ester, in words [2]
B1 | 107.5 U/mg | 387.5 U/mg | 237.5 U/mg | 155.0 U/mg | 7.5 U/mg | 380.0 U/mg | able to convert
B2 | 13.3 U/mg | 16.0 U/mg | 0 U/mg | 0 U/mg | 0 U/mg | 13.3 U/mg | –
